# Laboratory results: patent US20190225669A1 (ACCELERON PHARMA, published 2019)
# Like-named read-outs stand apart in the source and are kept apart here.
# T1: BMP15 (UniProt O95972 268-392)
# T1 construct: also called GDF9b
# T1 sequence (looked up): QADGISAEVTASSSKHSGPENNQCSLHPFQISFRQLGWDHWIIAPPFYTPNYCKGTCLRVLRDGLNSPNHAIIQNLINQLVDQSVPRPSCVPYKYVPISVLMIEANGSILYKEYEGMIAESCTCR
# T2: BMP5 (UniProt P22003 317-454, limits assumed)
# T2 sequence (looked up): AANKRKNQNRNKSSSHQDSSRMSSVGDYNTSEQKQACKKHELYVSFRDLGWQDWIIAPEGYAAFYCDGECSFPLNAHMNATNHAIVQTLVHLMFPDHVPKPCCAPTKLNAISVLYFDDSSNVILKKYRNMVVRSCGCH
# T3: BMP7 (UniProt P18075 293-431)
# T3 sequence (looked up): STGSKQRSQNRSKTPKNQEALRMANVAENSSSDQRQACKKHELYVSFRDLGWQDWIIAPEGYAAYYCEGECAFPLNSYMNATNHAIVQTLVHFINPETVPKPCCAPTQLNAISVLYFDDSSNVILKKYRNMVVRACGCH
# T4: BMP6 (UniProt P22004 382-513, limits assumed)
# T4 sequence (looked up): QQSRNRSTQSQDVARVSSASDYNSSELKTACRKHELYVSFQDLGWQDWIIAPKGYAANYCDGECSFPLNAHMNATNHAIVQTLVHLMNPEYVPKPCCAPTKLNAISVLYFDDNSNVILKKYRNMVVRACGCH
# T5: ActRIIB-Fc homodimer (UniProt Q13705 19-137)
# T5 construct: extracellular domain; also called ActRIIB homodimer
# T5 sequence (looked up): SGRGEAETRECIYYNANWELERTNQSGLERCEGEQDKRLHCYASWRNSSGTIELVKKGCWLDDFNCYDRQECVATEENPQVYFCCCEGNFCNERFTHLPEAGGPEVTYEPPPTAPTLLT
# T6: activin A (UniProt P08476 311-426)
# T6 sequence (looked up): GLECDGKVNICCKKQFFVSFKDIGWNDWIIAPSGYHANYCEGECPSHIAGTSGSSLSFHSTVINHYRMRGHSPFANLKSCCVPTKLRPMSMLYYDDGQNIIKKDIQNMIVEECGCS
# T7: activin B (UniProt P09529 293-407)
# T7 sequence (looked up): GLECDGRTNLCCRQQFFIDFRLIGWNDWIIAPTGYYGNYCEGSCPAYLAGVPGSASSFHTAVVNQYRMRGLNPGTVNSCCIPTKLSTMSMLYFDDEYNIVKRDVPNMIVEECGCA
# T8: BMP10 (UniProt O95393 317-424)
# T8 sequence (looked up): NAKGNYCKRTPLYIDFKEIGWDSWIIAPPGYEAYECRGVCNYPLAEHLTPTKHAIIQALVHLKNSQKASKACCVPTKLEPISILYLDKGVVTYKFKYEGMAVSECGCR
# T9: GDF3 (UniProt Q9NR23 251-364)
# T9 sequence (looked up): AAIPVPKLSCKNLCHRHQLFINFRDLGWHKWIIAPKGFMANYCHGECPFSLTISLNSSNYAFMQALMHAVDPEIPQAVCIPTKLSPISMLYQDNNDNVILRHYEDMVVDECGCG
# T10: GDF5 (UniProt P43026 382-501)
# T10 construct: also called BMP14
# T10 sequence (looked up): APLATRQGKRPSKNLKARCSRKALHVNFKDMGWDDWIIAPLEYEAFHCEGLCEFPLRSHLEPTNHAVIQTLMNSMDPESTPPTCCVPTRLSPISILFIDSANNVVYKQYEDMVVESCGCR
# T11: GDF8 (UniProt O14793 267-375)
# T11 construct: also called myostatin
# T11 sequence (looked up): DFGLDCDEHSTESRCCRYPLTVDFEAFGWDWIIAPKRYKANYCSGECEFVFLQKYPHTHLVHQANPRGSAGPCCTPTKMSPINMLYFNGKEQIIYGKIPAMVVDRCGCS
# T12: GDF11 (UniProt O95390 299-407)
# T12 construct: also called BMP11
# T12 sequence (looked up): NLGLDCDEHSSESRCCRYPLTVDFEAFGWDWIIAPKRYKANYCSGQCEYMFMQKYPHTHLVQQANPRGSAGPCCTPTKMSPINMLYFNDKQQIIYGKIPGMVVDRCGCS
# T13: GDF6 (UniProt Q6KF10 336-455, limits assumed)
# T13 construct: also called BMP13
# T13 sequence (looked up): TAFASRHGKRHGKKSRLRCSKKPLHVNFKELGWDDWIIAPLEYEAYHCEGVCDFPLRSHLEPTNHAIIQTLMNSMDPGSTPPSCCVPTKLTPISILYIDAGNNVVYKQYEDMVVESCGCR
# B1: BMPRII-Fc homodimer (Fc fusion, UniProt Q13873 27-150, looked up, not shown: a dimerising Fc or GST)
# chain: SQNQERLCAFKDPYQQDLGIGESRISHENGTILCSKGSTCYGLWEKSKGDINLVKQGCWSHIGDPQECHYEECVVTTTPPSIQNGTYRFCCCSTDLCNVNFTENFPPPDTTPLSPPHSFNRDET
# notes: extracellular domain
# B2: BMP9 (ligand, UniProt Q9UK05 320-429, looked up)
# chain: SAGAGSHCQKTSLRVNFEDIGWDSWIIAPKEYEAYECKGGCFFPLADDVTPTKHAIVQTLVHLKFPTKVGKACCVPTKLSPISVLYKDDMGVPTLKYHYEGMSVAECGCR
# notes: also called GDF2
# B3: ActRIIB-Fc:ALK2-Fc heterodimer (Fc fusion)
# chain 1: GRGEAETRECIYYNANWELERTNQSGLERCEGEQDKRLHCYASWRNSSGTIELVKKGCWLDDFNCYDRQECVATEENPQVYFCCCEGNFCNERFTHLPEAGGPEVTYEPPPTAPTGGGTHTCPPCPAPELLGGPSVFLFPPKPKDTLMISRTPEVTCVVVDVSHEDPEVKFNWYVDGVEVHNAKTKPREEQYNSTYRVVSVLTVLHQDWLNGKEYKCKVSNKALPAPIEKTISKAKGQPREPQVYTLPPSRKEMTKNQVSLTCLVKGFYPSDIAVEWESNGQPENNYKTTPPVLKSDGSFFLYSKLTVDKSRWQQGNVFSCSVMHEALHNHYTQKSLSLSPGK
# chain 2: MEDEKPKVNPKLYMCVCEGLSCGNEDHCEGQQCFSSLSINDGFHVYQKGCFQVYEQGKMTCKTPPSPGQAVECCQGDWCNRNITAQLPTKGKSFPGTQNFHLETGGGTHTCPPCPAPELLGGPSVFLFPPKPKDTLMISRTPEVTCVVVDVSHEDPEVKFNWYVDGVEVHNAKTKPREEQYNSTYRVVSVLTVLHQDWLNGKEYKCKVSNKALPAPIEKTISKAKGQPREPQVYTLPPSREEMTKNQVSLTCLVKGFYPSDIAVEWESNGQPENNYDTTPPVLDSDGSFFLYSDLTVDKSRWQQGNVFSCSVMHEALHNHYTQKSLSLSPG
# notes: C-terminal Lys optional; also called ActRIIB-Fc:ALK2-Fc heterodimeric complex
# Legend:
# [1] = target: T1, BMP15; test: Biacore SPR
# Experimental: (§1) Ligands were injected and allowed to flow over the captured receptor protein.
# [2] = target: T2, BMP5; test: Biacore SPR
# Experimental: (§2) A Biacore™-based binding assay was used to compare ligand binding selectivity of the BMPRII-Fc:ALK2-Fc heterodimeric complex described above with that of BMPRII-Fc and ALK2-Fc homodimeric complexes. […] Ligands were injected and allowed to flow over the captured receptor protein.
# [3] = target: T1, BMP15; test: Biacore SPR; remark: listed apart in the source
# Experimental: as §2
# [4] = target: T1, BMP15; test: Biacore SPR; remark: listed apart in the source
# Experimental: as §1
# [5] = target: T1, BMP15; test: Biacore SPR; remark: listed apart in the source
# Experimental: as §1
# [6] = target: T3, BMP7; test: Biacore SPR; kinetics indeterminate (transient)
# Experimental: as §2
# [7] = target: T4, BMP6; test: Biacore SPR; kinetics indeterminate (transient)
# [8] = target: T3, BMP7; test: Biacore SPR; kinetics indeterminate (transient); remark: listed apart in the source
# [9] = target: B1; test: Biacore SPR
# Experimental: as §1
# [10] = target: T5, ActRIIB-Fc homodimer; test: Biacore SPR
# Experimental: as §1
# [11] = target: T5, ActRIIB-Fc homodimer; test: Biacore SPR; remark: listed apart in the source
# Experimental: as §1
# [12] = target: T14, ALK3-Fc homodimer (UniProt P36894 24-152); test: Biacore SPR
# T14 construct: extracellular domain
# T14 sequence (P36894 24-152): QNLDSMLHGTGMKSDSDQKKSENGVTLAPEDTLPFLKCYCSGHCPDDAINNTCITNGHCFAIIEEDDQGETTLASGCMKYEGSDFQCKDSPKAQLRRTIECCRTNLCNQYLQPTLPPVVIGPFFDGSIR
# Experimental: as §1
# [13] = target: T5, ActRIIB-Fc homodimer; test: Biacore SPR; remark: listed apart in the source
# Experimental: as §1
# [14] = target: T5, ActRIIB-Fc homodimer; test: Biacore SPR; remark: listed apart in the source
# Experimental: as §1
# [15] = target: T5, ActRIIB-Fc homodimer; test: Biacore SPR; remark: listed apart in the source
# Experimental: as §1
# [16] = target: B1; test: Biacore SPR; remark: listed apart in the source
# Experimental: as §2
# [17] = target: B1; test: Biacore SPR; remark: listed apart in the source
# Experimental: as §1
# [18] = target: B1; test: Biacore SPR; remark: listed apart in the source
# Experimental: as §1
# [19] = target: T15, ActRIIA-Fc homodimer (UniProt P27037 20-135); test: Biacore SPR; kinetics indeterminate (transient)
# T15 construct: extracellular domain
# T15 sequence (P27037 20-135): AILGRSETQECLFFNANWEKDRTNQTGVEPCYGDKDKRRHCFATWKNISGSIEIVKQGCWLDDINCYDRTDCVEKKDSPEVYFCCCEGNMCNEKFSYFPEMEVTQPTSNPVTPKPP
# Experimental: as §1
# [20] = target: T6, activin A; test: Biacore SPR
# Experimental: as §1
# [21] = target: T7, activin B; test: Biacore SPR
# Experimental: as §1
# [22] = target: T2, BMP5; test: Biacore SPR; remark: listed apart in the source
# Experimental: as §1
# [23] = target: T3, BMP7; test: Biacore SPR
# Experimental: as §1
# [24] = target: B2; test: Biacore SPR
# Experimental: as §1
# [25] = target: T8, BMP10; test: Biacore SPR
# Experimental: as §1
# [26] = target: T9, GDF3; test: Biacore SPR
# Experimental: as §1
# [27] = target: T10, GDF5; test: Biacore SPR
# Experimental: as §1
# [28] = target: T11, GDF8; test: Biacore SPR
# Experimental: as §1
# [29] = target: T12, GDF11; test: Biacore SPR
# Experimental: as §1
# [30] = target: T13, GDF6; test: Biacore SPR; kinetics indeterminate (transient)
# Experimental: as §1
binder,measurement,setting,value
B1,Kd,[1],0.29 nM
same,koff,[1],0.0028 s⁻¹
same,kon,[1],9.9e+06 M⁻¹ s⁻¹
same,Kd,[2],9.9 nM
same,koff,[2],0.019 s⁻¹
same,kon,[2],1.9e+06 M⁻¹ s⁻¹
same,Kd,[3],0.72 nM
same,koff,[3],0.0042 s⁻¹
same,kon,[3],5.8e+06 M⁻¹ s⁻¹
same,Kd,[4],0.29 nM
same,koff,[4],0.0028 s⁻¹
same,kon,[4],9.9e+06 M⁻¹ s⁻¹
same,Kd,[5],0.29 nM
same,koff,[5],0.0028 s⁻¹
same,kon,[5],9.9e+06 M⁻¹ s⁻¹
same,Kd,[6],> 93 nM
same,Kd,[7],> 8.9 nM
same,Kd,[8],> 38 nM
B2,Kd,[9],2.1 nM
same,koff,[9],0.026 s⁻¹
same,kon,[9],1.2e+07 M⁻¹ s⁻¹
same,Kd,[10],0.077 nM
same,koff,[10],0.0011 s⁻¹
same,kon,[10],1.4e+07 M⁻¹ s⁻¹
same,Kd,[11],0.034 nM
same,koff,[11],0.0013 s⁻¹
same,kon,[11],3.9e+07 M⁻¹ s⁻¹
same,binding result,[12],no binding
same,Kd,[13],0.01 nM
same,koff,[13],0.0012 s⁻¹
same,kon,[13],1.2e+08 M⁻¹ s⁻¹
same,Kd,[14],0.034 nM
same,koff,[14],0.0013 s⁻¹
same,kon,[14],3.9e+07 M⁻¹ s⁻¹
same,Kd,[15],0.034 nM
same,koff,[15],0.0013 s⁻¹
same,kon,[15],3.9e+07 M⁻¹ s⁻¹
same,Kd,[16],1.6 nM
same,koff,[16],0.073 s⁻¹
same,kon,[16],4.5e+07 M⁻¹ s⁻¹
same,Kd,[17],2.1 nM
same,koff,[17],0.026 s⁻¹
same,kon,[17],1.2e+07 M⁻¹ s⁻¹
same,Kd,[18],2.1 nM
same,koff,[18],0.026 s⁻¹
same,kon,[18],1.2e+07 M⁻¹ s⁻¹
same,Kd,[19],> 10 nM
B3,Kd,[20],0.076 nM
same,koff,[20],0.0026 s⁻¹
same,kon,[20],3.4e+07 M⁻¹ s⁻¹
same,Kd,[21],0.047 nM
same,koff,[21],0.00015 s⁻¹
same,kon,[21],3.2e+06 M⁻¹ s⁻¹
same,Kd,[22],1.2 nM
same,koff,[22],0.0014 s⁻¹
same,kon,[22],1.2e+06 M⁻¹ s⁻¹
same,Kd,[23],0.17 nM
same,koff,[23],0.0026 s⁻¹
same,kon,[23],1.5e+07 M⁻¹ s⁻¹
same,Kd,[24],0.28 nM
same,koff,[24],0.00089 s⁻¹
same,kon,[24],3.2e+06 M⁻¹ s⁻¹
same,Kd,[25],0.053 nM
same,koff,[25],0.0029 s⁻¹
same,kon,[25],5.5e+07 M⁻¹ s⁻¹
same,Kd,[26],6.5 nM
same,koff,[26],0.012 s⁻¹
same,kon,[26],1.8e+06 M⁻¹ s⁻¹
same,Kd,[27],5 nM
same,koff,[27],0.0044 s⁻¹
same,kon,[27],880000 M⁻¹ s⁻¹
same,Kd,[28],0.36 nM
same,koff,[28],0.00073 s⁻¹
same,kon,[28],2.1e+06 M⁻¹ s⁻¹
same,Kd,[29],0.6 nM
same,koff,[29],0.00093 s⁻¹
same,kon,[29],1.6e+06 M⁻¹ s⁻¹
same,Kd,[30],> 240 nM
